The experiment deals with T1, Fc-tagged extracellular section of EGFR (rEGFR) (human, UniProt P00533 25-645).
T1 construct: EGFR, extracellular section, human-derived; Bought protein; also called rEGFR (extracellular part); recombinant extracellular domain of EGFR; source: bought: Sino Biological
The experiment in a line: pull-down; 200 ng/mL rSPINK4-His and 1000 ng/mL Fc-tagged extracellular EGFR in 1 mL PBS with protease inhibitors, 4 °C overnight; anti-His or anti-EGFR magnetic beads, IgG control; Western blot. The following applies: both partners purified. (In western blotting, separated proteins are transferred to a membrane and probed.)

B1: human-derived recombinant SPINK4 protein, His-tagged (rSPINK4-His) (natural protein, UniProt O60575 27-86, looked up)
chain: GKLPFSRMPICEHMVESPTCSQMSNLVCGTDGLTYTNECQLCLARIKTKQDIQIMKDGKC
notes: Bought recombinant protein
Turning to B1, the binding result is reported as “binds”.

For the origin of these results see PMC11245600, “Therapeutic potential of the secreted Kazal-type serine protease inhibitor SPINK4 in colitis” (Nature Communications, 2024).
